Measurements reported in patent US20200291128A1 (ABEXXA BIOLOGICS, published 2020).

Biological target: T1, HLA-E*0103 (recombinant, refolded with peptide into monomer complexes)
T1 construct: The paragraph names only the allele
Assay: peptide binding and peptide/HLA-E refold into monomer complexes

B1: peptide YLLPAIVHI from the protein RNA Helicase (peptide)
peptide: YLLPAIVHI
Question: Does B1 bind?
Answer: Result: binds
